Results taken from US20240376207A1 (JIANGSU HENGRUI PHARMACEUTICALS, published 2024).
Blank lines part the entries; values can stand above or below the binder they belong to.

Legend:
[1] = target: T1, human TIGIT recombinant protein (human, UniProt Q495A1 22-141, limits assumed); test: ELISA, coated antigen
T1 construct: construct not described; also called human TIGT recombinant protein
T1 sequence (looked up): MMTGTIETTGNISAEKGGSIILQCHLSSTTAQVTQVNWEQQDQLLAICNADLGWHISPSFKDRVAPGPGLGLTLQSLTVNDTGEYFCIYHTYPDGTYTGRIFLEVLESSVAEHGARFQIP
Description: (§1) A human, cynomolgus monkey, or mouse PVRIG protein (at a concentration of 1 μg/mL) was coated on a 96-well microplate at 100 μL per well, and incubated overnight at 4° C. The plate was washed three times with wash buffer at 250 μL per well. For each wash, the plate was shaken for 10 s to ensure adequate cleaning. A blocking solution (PBS+0.05% Tween20+1% BSA) was added at 300 μL/well, and the plate was incubated at room temperature for 1 h. The plate was washed three times with wash buffer at 250 μL per well. For each wash, the plate was shaken for 10 s to ensure adequate cleaning. Dilutions of the test anti-PVRIG antibodies were added at 100 μL/well. The plate was incubated at 37° C. for 1 h. The plate was washed three times with wash buffer at 250 μL per well. The […] anti-human IgG secondary antibody (Sigma, A8667) was added at 100 μL per well. The plate was incubated at 37° C. for 1 h. The plate was washed three times with wash buffer at 250 μL per well. TMB was added at 100 μL/well, and the plate was incubated in the dark for 15 min. 0.16 M sulfuric acid was added at 50 μL/well. The OD values at 450 nm were read by using a Thermo MultiSkanFc microplate reader, and the EC₅₀ values of the binding of the anti-PVRIG antibodies to PVRIG were calculated.
(§2) The experiments were carried out according to the methods of Example 4, Example 5 and Example 6 (corresponding receptors and ligands were replaced with human TIGIT and human PVR), and the results are shown in Table 27.

[2] = target: T2, human TIGIT expressed on cells (human, UniProt Q495A1 22-244); test: FACS, cells overexpressing target
T2 construct: whole, on cells; also called cells overexpressing human TIGIT
T2 sequence (looked up): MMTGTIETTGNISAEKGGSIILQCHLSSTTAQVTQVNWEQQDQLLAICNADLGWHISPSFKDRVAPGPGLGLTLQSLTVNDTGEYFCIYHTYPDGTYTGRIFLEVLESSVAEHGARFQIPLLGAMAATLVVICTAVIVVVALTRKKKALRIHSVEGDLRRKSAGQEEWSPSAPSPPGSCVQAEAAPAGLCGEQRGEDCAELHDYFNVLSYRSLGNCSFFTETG
Description: (§3) The expression plasmid carrying human or cynomolgus monkey PVRIG gene sequence was transfected into HEK293 cells, and the over-expressing stable transfection monoclonal cell strain was obtained by antibiotic screening and infinite dilution. Overexpressing cells were seeded into a 96-well plate at 2×10⁵ cells/per well. The cells were centrifuged at 300 g for 5 min, the supernatant was then removed, 100 μL of the test antibody was added, and the mixture was incubated at 4° C. for 1 h. The mixture was centrifuged, the supernatant was removed, the plate was washed 3 times with 200 μL of wash buffer (PBS+2% FBS), and then 100 μL of an anti-human IgG secondary antibody (Invitrogen, A-11013) labeled with Alexa Fluor 488 diluted at 1:500 was added. The mixture was incubated at 4° C. for 1 h. The plate was centrifuged, and the supernatant was removed. The plate was washed 3 times with 200 μL of wash buffer (PBS+2% FBS). The cells were resuspended in 100 μL of PBS and tested on a flow cytometer (BD FACS Calibur or BD FACS Canto_II).
as §2

[3] = target: T1, human TIGIT recombinant protein; test: competition ELISA; human TIGIT, competitor human PVR
Description: The h-PVRIG-mIgG2a Fc protein (at a concentration of 1 μg/mL) was coated on the 96-well microplate at 100 μL per well, and incubated overnight at 4° C. The plate was washed three times with wash buffer at 250 μL per well. For each wash, the plate was shaken for 10 s to ensure adequate cleaning. A blocking solution was added at 300 μL/well, and the plate was incubated at room temperature for 1 h. The plate was washed three times with wash buffer at 250 μL per well. For each wash, the plate was shaken for 10 s to ensure adequate cleaning. 50 μL of diluted test anti-PVRIG antibody and 50 μL of his-tagged ligand PVRL2 were added to each well, and the plate was incubated at 37° C. for 1 h. The plate was washed three times with wash buffer at 250 μL per well. The HRP-labeled anti-his-tagged secondary antibody (Genscrpit) diluted at 1:2000 was added at 100 μL per well. The plate was incubated at 37° C. for 1 h. The plate was washed three times with wash buffer at 250 μL per well. TMB was added at 100 μL/well, and the plate was incubated in the dark for 15 min. 0.16 M sulfuric acid was added at 50 μL/well. OD values at 450 nm were measured using a Thermo MμtLtiSkanFc microplate reader, and the IC₅₀ values of the anti-PVRIG antibodies blocking the binding of PVRIG to PVRL2 were calculated.
as §2

[4] = target: T3, human PVRIG expressed on cells (human, UniProt Q6DKI7 41-326); test: cell-based or functional assay
T3 sequence (looked up): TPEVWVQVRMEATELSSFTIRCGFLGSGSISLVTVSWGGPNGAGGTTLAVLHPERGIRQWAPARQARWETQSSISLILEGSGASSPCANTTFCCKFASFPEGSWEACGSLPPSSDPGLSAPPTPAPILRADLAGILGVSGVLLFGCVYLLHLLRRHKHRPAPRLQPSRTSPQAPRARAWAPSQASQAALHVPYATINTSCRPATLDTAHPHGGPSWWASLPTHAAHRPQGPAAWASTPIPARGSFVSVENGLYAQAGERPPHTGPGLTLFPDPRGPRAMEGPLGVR

[5] = target: T3, human PVRIG expressed on cells; test: cell-based or functional assay; remark: listed apart in the source
[6] = target: T3, human PVRIG expressed on cells; test: FACS, HEK293 cells overexpressing target
Description: as §3
(§4) Binding of the humanized anti-PVRIG antibodies to human or cynomolgus monkey PVRIG was detected by using a flow cytometer according to the method of Example 5.

[7] = target: T4, cynomolgus monkey PVRIG expressed on cells (cynomolgus monkey, UniProt A0A2K5WVV8 1-322); test: FACS, HEK293 cells overexpressing target
T4 construct: whole, on cells; also called Monkey PVRIG FACS; cells overexpressing cynomolgus monkey PVRIG
T4 sequence: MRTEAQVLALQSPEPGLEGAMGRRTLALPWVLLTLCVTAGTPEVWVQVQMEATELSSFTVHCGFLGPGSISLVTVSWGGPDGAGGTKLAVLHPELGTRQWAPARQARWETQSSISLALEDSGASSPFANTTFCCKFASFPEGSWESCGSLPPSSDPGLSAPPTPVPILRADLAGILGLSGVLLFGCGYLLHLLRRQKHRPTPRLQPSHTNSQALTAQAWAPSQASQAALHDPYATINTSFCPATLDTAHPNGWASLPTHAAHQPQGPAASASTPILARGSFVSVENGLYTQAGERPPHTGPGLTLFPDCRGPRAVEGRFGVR
Description: as §3, §4

[8] = target: T5, his-tagged human PVRIG (h-PVRIG-his) recombinant protein (human, UniProt Q6DKI7 41-171, limits assumed); test: BLI (Fortebio), antibody on Protein A sensor, 1:1 fit
T5 construct: bought from Acrobiosystems; also called Human PVRIG-his; human PVRIG recombinant protein; not shown: his tag
T5 sequence (looked up): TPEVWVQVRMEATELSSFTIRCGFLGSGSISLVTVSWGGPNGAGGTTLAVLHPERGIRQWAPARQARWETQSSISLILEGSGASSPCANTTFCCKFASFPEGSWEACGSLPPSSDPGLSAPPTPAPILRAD
Description: A Protein A biosensor (Fortebio, #18-5010) was immersed in 200 μL of KB buffer (PBS, pH 7.4, 0.02% tween-20, 0.1% BSA) for 60 s for the wetting treatment. Then, the anti-PVRIG antibody was diluted to 10 μg/mL with the KB buffer, and the sensor was immersed in 200 μL of the solution until the reading was 1.2 nm. The sensor was immersed in the KB buffer for 100 s to elute excess antibody. The his-tagged human PVRIG was diluted in a 2-fold gradient to 64 nM-4 nM with the KB buffer. The sensor was immersed in the solution for 300 s for binding. The sensor was immersed in the KB buffer for 600 s for dissociation. The data were fitted in a dynamic 1:1 binding mode.
The affinity of the humanized anti-PVRIG antibodies for human PVRIG was detected according to the method of Example 7. All the antibodies listed in the Table have high affinity for human PVRIG.

[9] = target: T6, human IgG1 Fc-tagged mouse PVRIG (m-PVRIG-hIgG1 Fc) (mouse, UniProt A0A1B0GS01 35-165); test: ELISA, coated antigen
T6 construct: bought from Acrobiosystems; also called Mouse PVRIG-Fc; mouse PVRIG recombinant protein; not shown: human IgG1 Fc tag of the Acrobiosystems product, and any linker to it
T6 sequence: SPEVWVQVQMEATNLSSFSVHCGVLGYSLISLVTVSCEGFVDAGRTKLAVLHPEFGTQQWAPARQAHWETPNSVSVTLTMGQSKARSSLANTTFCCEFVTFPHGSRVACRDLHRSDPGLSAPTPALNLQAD
Description: (§5) ELISA assay was used to detect binding properties of anti-PVRIG antibodies. […] After the antibody was added, the activity of the binding of the antibody to the antigen was detected by adding a secondary antibody (HRP-conjugated anti-primary antibody Fc antibody) and HRP substrate TMIB.
as §1

[10] = target: T7, his-tagged cynomolgus monkey PVRIG (cyno-PVRIG-his) recombinant protein (cynomolgus monkey); test: ELISA, coated antigen
T7 construct: expressed in HEK293, purified by Ni-NTA; also called Monkey PVRIG-his; cynomolgus monkey PVRIG recombinant protein
T7 chain: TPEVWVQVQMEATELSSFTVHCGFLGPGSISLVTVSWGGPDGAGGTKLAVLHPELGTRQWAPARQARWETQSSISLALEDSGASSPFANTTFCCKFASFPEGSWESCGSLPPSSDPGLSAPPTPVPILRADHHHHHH
Description: as §5, §1

B2: anti-PVRIG/TIGIT bispecific antibody 1708-151-1 (bispecific antibody, human IgG4 S228P, kappa)
heavy: not shown
light: DIQMTQSPSSLSASVGDRVTITCRASENIYSYLAWYQQKPGKSPKLLIYNARTLAEGVPSRFSGSGSGTDFTLTISSLQPEDFATYYCQYHSGSPLPFGGGTKVEIKRTVAAPSVFIFPPSDEQLKSGTASVVCLLNNFYPREAKVQWKVDNALQSGNSQESVTEQDSKDSTYSLSSTLTLSKADYEKHKVYACEVTHQGLSSPVTKSFNRGEC
EC50 [1]: 0.101 nM
EC50 [2]: 1.51 nM
IC50 [3]: 0.96 nM

B3: anti-PVRIG/TIGIT bispecific antibody 1708-151-2 (bispecific antibody, human IgG4 S228P, kappa)
heavy: not shown
light: DIQMTQSPSSLSASVGDRVTITCRASENIYSYLAWYQQKPGKSPKLLIYNARTLAEGVPSRFSGSGSGTDFTLTISSLQPEDFATYYCQYHSGSPLPFGGGTKVEIKRTVAAPSVFIFPPSDEQLKSGTASVVCLLNNFYPREAKVQWKVDNALQSGNSQESVTEQDSKDSTYSLSSTLTLSKADYEKHKVYACEVTHQGLSSPVTKSFNRGEC
EC50 [1]: 0.09 nM
EC50 [2]: 1.27 nM
IC50 [3]: 1.04 nM

Second part, led by results:

EC50 [1]: 0.069 nM
EC50 [2]: 1.92 nM
IC50 [3]: 0.62 nM
B1: anti-PVRIG/TIGIT bispecific antibody 1708-151-3 (bispecific antibody, human IgG4 S228P, kappa)
heavy: not shown
light: HVQLVESGGGSVQAGGSLRLSCVASASGFTYRPYCMAWFRQAPGKEREAVAGIDIFGGTTYADSVKGRFTASRDNAGFSLFLQMNDLKPEDTAMYYCAAGDSPDGRCPPLGQGLNYWGQGTQVTVSSGGGGSGGGGSDIQMTQSPSSLSASVGDRVTITCRASENIYSYLAWYQQKPGKSPKLLIYNARTLAEGVPSRFSGSGSGTDFTLTISSLQPEDFATYYCQYHSGSPLPFGGGTKVEIKRTVAAPSVFIFPPSDEQLKSGTASVVCLLNNFYPREAKVQWKVDNALQSGNSQESVTEQDSKDSTYSLSSTLTLSKADYEKHKVYACEVTHQGLSSPVTKSFNRGEC

PVRIG reporter gene cell activity EC50 [4]: 0.176 nM
EC50 [6]: 3 pM
EC50 [7]: 5 pM
Kd [8]: 1.92 nM
koff [8]: 0.000325 s⁻¹
kon [8]: 169000 M⁻¹ s⁻¹
B4: humanized anti-PVRIG antibody 30H2 (antibody, human IgG4 S228P, F234A L235A, V domains shown)
VH: EVQLVESGGGLVQPGGSLRLSCAASGFTFSGDCMGWFRQAPGKGLDEGVATIDNAGRIKYADSVKGRFTISRDNAKNSLYLQMNSLRAEDTAVYYCAAGWTFGGQCSPADWGQGTQVTVSS
NK92 killing of K562, killing activity (%), 4 nM antibody [5]: 7.7%
NK92 killing of K562, killing activity (%), 20 nM antibody [5]: 14.5%
NK92 killing of K562, killing activity (%), 100 nM antibody [5]: 17.7%

binding result [9]: no binding
EC50 [10]: 0.14 nM
B5: anti-PVRIG antibody 20 (antibody, human IgG4 S228P, F234A L235A, V domains shown)
VH: DVQLVESGGGSVQAGGSLRLSCVASRYTSRTDCMGWFRQAPGKEHEGVAHIDSDGIPRYVDSVKGRFTISQDHAKNTLYLQMNSLKPEDSATYYCVVGFKFDDDYCAPNDWGQGTQVTVSS
notes: no light chain
